# In publication PMC7904604:
# B1: non-specific sequence (dsDNA)
# DNA 1: GGCTCTTCCGGTCGTGCAAGAGGAAATACAAAAAA
# DNA 2: TTTTTTGTATTTCCTCTTGCACGACCGGAAGAGCC
# Target: GST-BLMP-1(ZnFs) (Caenorhabditis elegans, UniProt Q93560 508-642)
# Assay: competition
# Sequence of GST-BLMP-1(ZnFs) (Q93560 508-642): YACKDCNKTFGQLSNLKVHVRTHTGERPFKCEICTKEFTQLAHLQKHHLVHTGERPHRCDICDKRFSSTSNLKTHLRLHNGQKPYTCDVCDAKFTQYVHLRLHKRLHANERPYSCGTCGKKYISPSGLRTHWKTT
binder,measurement,value
B1,binding result,no binding
